Measurements taken from paper PMC11574045, “A cofactor-induced repressive type of transcription factor condensation can be induced by synthetic peptides to suppress tumorigenesis” (The EMBO Journal, 2024).

Tested on: HEK293FT cells transfected with TF library
Assay: Screening of TF condensates based on fluorescent puncta
Assay type: cell-based
Conditions: Figure 1B numerical data; TF library screen, one value per transcriptional factor
Procedure, shortened: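 HEK293FT cells were reverse-transfected with Flag- or GAL4-tagged TF plasmids (1.6 μg/ml, PEI). After 60 h, cells were cultured 12 h with or without glucose, then fixed and immunostained with anti-Flag or anti-GAL4 and Alexa 488 secondaries. Fluorescent puncta were imaged over fifty random fields per well by high-content imaging.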

B1: YAF2 (protein, UniProt Q8IY57 1-180, looked up)
YY1-associated factor 2: MGDKKSPTRPKRQPKPSSDEGYWDCSVCTFRNSAEAFKCMMCDVRKGTSTRKPRPVSQLVAQQVTQQFVPPTQSKKEKKDKVEKEKSEKETTSKKNSHKKTRPRLKNVDRSSAQHLEVTVGDLTVIITDFKEKTKSPPASSAASADQHSQSGSSSDNTERGMSRSSSPRGEASSLNGESH
- Z score of condensed fraction: 1.84

B2: ZBTB37 (protein, UniProt Q5TC79 1-503, looked up)
Zinc finger and BTB …: MEKGGNIQLEIPDFSNSVLSHLNQLRMQGRLCDIVVNVQGQAFRAHKVVLAASSPYFRDHMSLNEMSTVSISVIKNPTVFEQLLSFCYTGRICLQLADIISYLTAASFLQMQHIIDKCTQILEGIHFKINVAEVEAELSQTRTKHQERPPESHRVTPNLNRSLSPRHNTPKGNRRGQVSAVLDIRELSPPEESTSPQIIEPSSDVESREPILRINRAGQWYVETGVADRGGRSDDEVRVLGAVHIKTENLEEWLGPENQPSGEDGSSAEEVTAMVIDTTGHGSVGQENYTLGSSGAKVARPTSSEVDRFSPSGSVVPLTERHRARSESPGRMDEPKQPSSQVEESAMMGVSGYVEYLREQEVSERWFRYNPRLTCIYCAKSFNQKGSLDRHMRLHMGITPFVCRMCGKKYTRKDQLEYHIRKHTGNKPFHCHVCGKSFPFQAILNQHFRKNHPGCIPLEGPHSISPETTVTSRGQAEEESPSQEETVAPGEAVQGSVSTTGPD
- Z score of condensed fraction: 0.3942

B3: USP49 (protein, UniProt Q70CQ1 1-688, looked up)
Ubiquitin carboxyl-terminal …: MDRCKHVGRLRLAQDHSILNPQKWCCLECATTESVWACLKCSHVACGRYIEDHALKHFEETGHPLAMEVRDLYVFCYLCKDYVLNDNPEGDLKLLRSSLLAVRGQKQDTPVRRGRTLRSMASGEDVVLPQRAPQGQPQMLTALWYRRQRLLARTLRLWFEKSSRGQAKLEQRRQEEALERKKEEARRRRREVKRRLLEELASTPPRKSARLLLHTPRDAGPAASRPAALPTSRRVPAATLKLRRQPAMAPGVTGLRNLGNTCYMNSILQVLSHLQKFRECFLNLDPSKTEHLFPKATNGKTQLSGKPTNSSATELSLRNDRAEACEREGFCWNGRASISRSLELIQNKEPSSKHISLCRELHTLFRVMWSGKWALVSPFAMLHSVWSLIPAFRGYDQQDAQEFLCELLHKVQQELESEGTTRRILIPFSQRKLTKQVLKVVNTIFHGQLLSQVTCISCNYKSNTIEPFWDLSLEFPERYHCIEKGFVPLNQTECLLTEMLAKFTETEALEGRIYACDQCNSKRRKSNPKPLVLSEARKQLMIYRLPQVLRLHLKRFRWSGRNHREKIGVHVVFDQVLTMEPYCCRDMLSSLDKETFAYDLSAVVMHHGKGFGSGHYTAYCYNTEGGFWVHCNDSKLNVCSVEEVCKTQAYILFYTQRTVQGNARISETHLQAQVQSSNNDEGRPQTFS
- Z score of condensed fraction: -0.174

B4: C16orf5 (protein, UniProt Q9H305 1-208, looked up)
Cell death-inducing …: MSSEPPPPYPGGPTAPLLEEKSGAPPTPGRSSPAVMQPPPGMPLPPADIGPPPYEPPGHPMPQPGFIPPHMSADGTYMPPGFYPPPGPHPPMGYYPPGPYTPGPYPGPGGHTATVLVPSGAATTVTVLQGEIFEGAPVQTVCPHCQQAITTKISYEIGLMNFVLGFFCCFMGCDLGCCLIPCLINDFKDVTHTCPSCKAYIYTYKRLC
- Z score of condensed fraction: 3.145

B5: ZBTB17 (protein, UniProt Q13105 1-803, looked up)
Zinc finger and BTB …: MDFPQHSQHVLEQLNQQRQLGLLCDCTFVVDGVHFKAHKAVLAACSEYFKMLFVDQKDVVHLDISNAAGLGQVLEFMYTAKLSLSPENVDDVLAVATFLQMQDIITACHALKSLAEPATSPGGNAEALATEGGDKRAKEEKVATSTLSRLEQAGRSTPIGPSRDLKEERGGQAQSAASGAEQTEKADAPREPPPVELKPDPTSGMAAAEAEAALSESSEQEMEVEPARKGEEEQKEQEEQEEEGAGPAEVKEEGSQLENGEAPEENENEESAGTDSGQELGSEARGLRSGTYGDRTESKAYGSVIHKCEDCGKEFTHTGNFKRHIRIHTGEKPFSCRECSKAFSDPAACKAHEKTHSPLKPYGCEECGKSYRLISLLNLHKKRHSGEARYRCEDCGKLFTTSGNLKRHQLVHSGEKPYQCDYCGRSFSDPTSKMRHLETHDTDKEHKCPHCDKKFNQVGNLKAHLKIHIADGPLKCRECGKQFTTSGNLKRHLRIHSGEKPYVCIHCQRQFADPGALQRHVRIHTGEKPCQCVMCGKAFTQASSLIAHVRQHTGEKPYVCERCGKRFVQSSQLANHIRHHDNIRPHKCSVCSKAFVNVGDLSKHIIIHTGEKPYLCDKCGRGFNRVDNLRSHVKTVHQGKAGIKILEPEEGSEVSVVTVDDMVTLATEALAATAVTQLTVVPVGAAVTADETEVLKAEISKAVKQVQEEDPNTHILYACDSCGDKFLDANSLAQHVRIHTAQALVMFQTDADFYQQYGPGGTWPAGQVLQAGELVFRPRDGAEGQPALAETSPTAPECPPPAE
- Z score of condensed fraction: -0.2141

B6: VENTX (protein, UniProt O95231 1-258, looked up)
Homeobox protein VENTX: MRLSSSPPRGPQQLSSFGSVDWLSQSSCSGPTHTPRPADFSLGSLPGPGQTSGAREPPQAVSIKEAAGSSNLPAPERTMAGLSKEPNTLRAPRVRTAFTMEQVRTLEGVFQHHQYLSPLERKRLAREMQLSEVQIKTWFQNRRMKHKRQMQDPQLHSPFSGSLHAPPAFYSTSSGLANGLQLLCPWAPLSGPQALMLPPGSFWGLCQVAQEALASAGASCCGQPLASHPPTPGRPSLGPALSTGPRGLCAMPQTGDAF
- Z score of condensed fraction: -0.4099

B7: C1D (protein, UniProt Q13901 1-141, looked up)
Nuclear nucleic acid-binding …: MAGEEINEDYPVEIHEYLSAFENSIGAVDEMLKTMMSVSRNELLQKLDPLEQAKVDLVSAYTLNSMFWVYLATQGVNPKEHPVKQELERIRVYMNRVKEITDKKKAGKLDRGAASRFVKNALWEPKSKNASKVANKGKSKS
- Z score of condensed fraction: -0.3287

B8: ZBTB26 (protein, UniProt Q9HCK0 1-441, looked up)
Zinc finger and BTB …: MSERSDLLHFKFENYGDSMLQKMNKLREENKFCDVTVLIDDIEVQGHKIVFAAGSPFLRDQFLLNDSREVKISILQSSEVGRQLLLSCYSGVLEFPEMELVNYLTAASFLQMSHIVERCTQALWKFIKPKQPMDSKEGCEPQSASPQSKEQQGDARGSPKQDSPCIHPSEDSMDMEDSDIQIVKVESIGDVSEVRSKKDQNQFISSEPTALHSSEPQHSLINSTVENRVSEIEQNHLHNYALSYTGSDNIIMASKDVFGPNIRGVDKGLQWHHQCPKCTRVFRHLENYANHLKMHKLFMCLLCGKTFTQKGNLHRHMRVHAGIKPFQCKICGKTFSQKCSLQDHLNLHSGDKPHKCNYCDMVFAHKPVLRKHLKQLHGKNSFDNANERNVQDLTVDFDSFACTTVTDSKGCQPQPDATQVLDAGKLAQAVLNLRNDSTCVN
- Z score of condensed fraction: 0.2152

B9: ZBED2 (protein, UniProt Q9BTP6 1-218, looked up)
Zinc finger BED …: MMRREDEEEEGTMMKAKGDLEMKEEEEISETGELVGPFVSAMPTPMPHNKGTRFSEAWEYFHLAPARAGHHPNQYATCRLCGRQVSRGPGVNVGTTALWKHLKSMHREELEKSGHGQAGQRQDPRPHGPQLPTGIEGNWGRLLEQVGTMALWASQREKEVLRRERAVEWRERAVEKRERALEEVERAILEMKWKVRAEKEACQREKELPAAVHPFHFV
- Z score of condensed fraction: 0.7838

B10: WNT3A (protein, UniProt P56704 19-352, looked up)
Protein Wnt-3a: SYPIWWSLAVGPQYSSLGSQPILCASIPGLVPKQLRFCRNYVEIMPSVAEGIKIGIQECQHQFRGRRWNCTTVHDSLAIFGPVLDKATRESAFVHAIASAGVAFAVTRSCAEGTAAICGCSSRHQGSPGKGWKWGGCSEDIEFGGMVSREFADARENRPDARSAMNRHNNEAGRQAIASHMHLKCKCHGLSGSCEVKTCWWSQPDFRAIGDFLKDKYDSASEMVVEKHRESRGWVETLRPRYTYFKVPTERDLVYYEASPNFCEPNPETGSFGTRDRTCNVSSHGIDGCDLLCCGRGHNARAERRREKCRCVFHWCCYVSCQECTRVYDVHTCK
- Z score of condensed fraction: -0.5314

B11: XBP1 (protein, UniProt P17861 1-261, looked up)
X-box-binding protein 1: MVVVAAAPNPADGTPKVLLLSGQPASAAGAPAGQALPLMVPAQRGASPEAASGGLPQARKRQRLTHLSPEEKALRRKLKNRVAAQTARDRKKARMSELEQQVVDLEEENQKLLLENQLLREKTHGLVVENQELRQRLGMDALVAEEEAEAKGNEVRPVAGSAESAALRLRAPLQQVQAQLSPLQNISPWILAVLTLQIQSLISCWAFWTTWTQSCSSNALPQSLPAWRSSQRSTQKDPVPYQPPFLCQWGRHQPSWKPLMN
- Z score of condensed fraction: -0.3977

B12: VAX2 (protein, UniProt Q9UIW0 1-290, looked up)
Ventral anterior homeobox 2: MGDGGAERDRGPARRAESGGGGGRCGDRSGAGDLRADGGGHSPTEVAGTSASSPAGSRESGADSDGQPGPGEADHCRRILVRDAKGTIREIVLPKGLDLDRPKRTRTSFTAEQLYRLEMEFQRCQYVVGRERTELARQLNLSETQVKVWFQNRRTKQKKDQSRDLEKRASSSASEAFATSNILRLLEQGRLLSVPRAPSLLALTPSLPGLPASHRGTSLGDPRNSSPRLNPLSSASASPPLPPPLPAVCFSSAPLLDLPAGYELGSSAFEPYSWLERKVGSASSCKKANT
- Z score of condensed fraction: -0.9394

B13: ZBTB21 (protein, UniProt Q9ULJ3 1-1066, looked up)
Zinc finger and BTB …: MEGLLHYINPAHAISLLSALNEERLKGQLCDVLLIVGDQKFRAHKNVLAASSEYFQSLFTNKENESQTVFQLDFCEPDAFDNVLNYIYSSSLFVEKSSLAAVQELGYSLGISFLTNIVSKTPQAPFPTCPNRKKVFVEDDENSSQKRSVIVCQSRNEAQGKTVSQNQPDVSHTSRPSPSIAVKANTNKPHVPKPIEPLHNLSLTEKSWPKDSSVVYAKSLEHSGSLDDPNRISLVKRNAVLPSKPLQDREAMDDKPGVSGQLPKGKALELALKRPRPPVLSVCSSSETPYLLKETNKGNGQGEDRNLLYYSKLGLVIPSSGSGSGNQSIDRSGPLVKSLLRRSLSMDSQVPVYSPSIDLKSSQGSSSVSSDAPGNVLCALSQKSSLKDCSEKTALDDRPQVLQPHRLRSFSASQSTDREGASPVTEVRIKTEPSSPLSDPSDIIRVTVGDAATTAAASSSSVTRDLSLKTEDDQKDMSRLPAKRRFQADRRLPFKKLKVNEHGSPVSEDNFEEGSSPTLLDADFPDSDLNKDEFGELEGTRPNKKFKCKHCLKIFRSTAGLHRHVNMYHNPEKPYACDICHKRFHTNFKVWTHCQTQHGIVKNPSPASSSHAVLDEKFQRKLIDIVREREIKKALIIKLRRGKPGFQGQSSSQAQQVIKRNLRSRAKGAYICTYCGKAYRFLSQFKQHIKMHPGEKPLGVNKVAKPKEHAPLASPVENKEVYQCRLCNAKLSSLLEQGSHERLCRNAAVCPYCSLRFFSPELKQEHESKCEYKKLTCLECMRTFKSSFSIWRHQVEVHNQNNMAPTENFSLPVLDHNGDVTGSSRPQSQPEPNKVNHIVTTKDDNVFSDSSEQVNFDSEDSSCLPEDLSLSKQLKIQVKEEPVEEAEEEAPEASTAPKEAGPSKEASLWPCEKCGKMFTVHKQLERHQELLCSVKPFICHVCNKAFRTNFRLWSHFQSHMSQASEESAHKESEVCPVPTNSPSPPPLPPPPPLPKIQPLEPDSPTGLSENPTPATEKLFVPQESDTLFYHAPPLSAITFKRQFMCKLCHRTFKTAFSLWSHEQTHN
- Z score of condensed fraction: -0.7871
